Consider 3 substances from US20120271036A1.

Read-outs that look alike come from different tables or passages of the source.

The target of experiment [1] is Cul5(N), human Cullin5 residues 2-384 (V341R, L345D) after removal of GST (human) (UniProt Q93034). As to the kind of experiment: ITC, 30 C.
Experiment [2] shares this target.
The target is the same in experiment [3]. As to the kind of experiment: ITC; one set of sites model.
Experiment [4] shares this target. The source holds these as a separate data set.
Experiment [5] shares this target. As to the kind of experiment: ITC, one set of sites fit of one isotherm with the actual BCvifVF concentration. For orientation: Isothermal titration calorimetry measures the heat released or taken up as one component is titrated into another.

Cul5(N), human Cullin5 residues 2-384 (V341R, L345D) after removal of GST (human), sequence (Q93034 other isoform, or with tags, fused parts or gaps V341R L345D V341R L345D): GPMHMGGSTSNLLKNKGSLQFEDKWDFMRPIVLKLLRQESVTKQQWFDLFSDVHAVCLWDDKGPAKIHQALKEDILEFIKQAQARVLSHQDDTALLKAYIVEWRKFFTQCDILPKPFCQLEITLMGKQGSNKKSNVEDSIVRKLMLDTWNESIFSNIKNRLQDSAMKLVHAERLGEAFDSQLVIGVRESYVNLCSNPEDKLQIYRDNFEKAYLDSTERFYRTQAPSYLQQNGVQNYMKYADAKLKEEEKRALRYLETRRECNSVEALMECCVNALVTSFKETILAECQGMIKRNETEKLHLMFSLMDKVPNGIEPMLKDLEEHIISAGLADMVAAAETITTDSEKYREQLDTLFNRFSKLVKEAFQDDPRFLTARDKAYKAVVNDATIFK

In experiment [1], “BCvif95-192: EloB (1-118) / EloC (17-112) / Vif (95-192) (from UniProt P69723 95-192)” came in with a ΔH of -5.24 kcal/mol. Further, in experiment [2], the N was 1.01 and the ΔS amounted to 11.1.
“BCvifSS: EloB (1-118) / EloC (17-112) / vif (95-192) (A123S, L124S) (from UniProt P69723 95-192)” yielded a ΔH in experiment [1] of -7.28 kcal/mol. For the same substance, the n (ITC binding stoichiometry) in experiment [3] is 1.01.
Consider “BCvifVF: EloB (1-118) / EloC (17-112) / vif (95-192) (A123V, L124F) (from UniProt P69723 95-192)”, for which the n (ITC binding stoichiometry, one set of sites model) amounted to 0.901 in experiment [4] and 0.451 in experiment [5]. This substance also returned a n (ITC binding stoichiometry) in experiment [3] of 0.43.
